Experimental findings from the supplement of paper PMC7125110 are described below.

B1: glmS ribozyme (parent)
chain: AUAAAAGCGCCAGAACUACAGAAAUGUAGUUGACGAGGAGGAGGUUUAUCGAAUUUUCGGCGGAUGCCUCCAAA

Common to all, as to details: with glucosamine-6-phosphate
The variants in series [1] derive from B1. Briefly: kcat; higher = faster cleavage; RNA array. The gist of the method:
(§1)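 Barcoded ribozyme variants on sequenced MiSeq chips were transcribed in situ by E. coli RNA polymerase and followed at 37 °C through a hybridised Cy3 probe. Glucosamine-6-phosphate at 40 μM to 10 mM in HEPES/KCl/Mg(OAc)2 buffer was flowed in, and tiles were imaged over ~14 h. Signals were normalised to baseline and to non-cleaving reference variants, and per-tile medians were fit to one- or two-exponential decays to give kobs. Weighted Michaelis–Menten fits across concentrations gave kcat and KM.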

The variants in series [2] derive from B1. Briefly: self-cleavage kobs at 40 uM GlcN6P; higher = faster cleavage; RNA array. The gist of the method: as §1
Variants of B1 are the subject of series [3]. Briefly: self-cleavage kobs at 160 uM GlcN6P; higher = faster cleavage; RNA array. The gist of the method:
as §1

The variants in series [4] derive from B1. Briefly: self-cleavage kobs at 640 uM GlcN6P; higher = faster cleavage; RNA array. Put shortly: as §1
The variants in series [5] derive from B1. Briefly: KM; higher = weaker cofactor use; RNA array. The gist of the method:
as §1

The variants in series [6] derive from B1. Briefly: self-cleavage kobs at 10000 uM GlcN6P; higher = faster cleavage; RNA array. Put shortly: as §1
In series [7] the parent is B1. In words: self-cleavage kobs at 2500 uM GlcN6P; higher = faster cleavage; RNA array. The gist of the method:
as §1

± gives the standard error. For part of these data: Fewer inactive variants are shown than the library holds.

Take G38U U54C: the turnover number (kcat) with glucosamine-6-phosphate [1] was under 1e-05 s⁻¹. The “self-cleavage kobs at 40 uM GlcN6P” value in the series with glucosamine-6-phosphate [2] is under 1e-05 s⁻¹. Moreover, the “self-cleavage kobs at 160 uM GlcN6P” value with glucosamine-6-phosphate [3] is under 1e-05 s⁻¹. In the series with glucosamine-6-phosphate [4], the “self-cleavage kobs at 640 uM GlcN6P” value is under 1e-05 s⁻¹.

On to G13A U47C, for which the catalytic constant (kcat) with glucosamine-6-phosphate [1] worked out at 8.51e-05 ± 5.3e-06 s⁻¹. The KM in the series with glucosamine-6-phosphate [5] was found to be 7300 ± 1000 µM. Besides, the “self-cleavage kobs at 10000 uM GlcN6P” value in the series with glucosamine-6-phosphate [6] stood at 4.92e-05 ± 1.1e-05 s⁻¹.

With A12G G29U C67G, in the series with glucosamine-6-phosphate [1], the kcat is 7.88e-05 ± 1.7e-05 s⁻¹. Also, in the series with glucosamine-6-phosphate [6], the “self-cleavage kobs at 10000 uM GlcN6P” value is 6.04e-05 ± 1.4e-05 s⁻¹.

As to G29C C68G, the turnover number (kcat) in the series with glucosamine-6-phosphate [1] was 2.94e-05 ± 9e-06 s⁻¹. In addition, the “self-cleavage kobs at 640 uM GlcN6P” value with glucosamine-6-phosphate [4] was found to be 5.49e-05 ± 1.9e-05 s⁻¹. In addition, the “self-cleavage kobs at 2500 uM GlcN6P” value with glucosamine-6-phosphate [7] stood at 3.19e-05 ± 1.5e-05 s⁻¹.

Consider C16A G51A, for which the kcat with glucosamine-6-phosphate [1] is under 1e-05 s⁻¹. In addition, the KM with glucosamine-6-phosphate [5] amounted to 632 ± 220 µM. Besides, in the series with glucosamine-6-phosphate [6], the “self-cleavage kobs at 10000 uM GlcN6P” value was under 1e-05 s⁻¹.

As for C11A C70U, the turnover number (kcat) with glucosamine-6-phosphate [1] is 0.000155 ± 1e-05 s⁻¹. Also, the Michaelis constant (KM) with glucosamine-6-phosphate [5] was determined as 210 ± 71 µM. Also, in the series with glucosamine-6-phosphate [2], the “self-cleavage kobs at 40 uM GlcN6P” value is 2.69e-05 ± 1e-05 s⁻¹. The “self-cleavage kobs at 160 uM GlcN6P” value with glucosamine-6-phosphate [3] is 6.69e-05 ± 1.4e-05 s⁻¹. In addition, in the series with glucosamine-6-phosphate [4], the “self-cleavage kobs at 640 uM GlcN6P” value turned out to be 0.00011 ± 1.2e-05 s⁻¹. For the same variant, in the series with glucosamine-6-phosphate [7], the “self-cleavage kobs at 2500 uM GlcN6P” value amounted to 0.000168 ± 1.4e-05 s⁻¹. Besides, in the series with glucosamine-6-phosphate [6], the “self-cleavage kobs at 10000 uM GlcN6P” value was 0.000145 ± 9.7e-06 s⁻¹.

Turning to A48G U55G, the turnover number (kcat) with glucosamine-6-phosphate [1] worked out at 9.18e-05 ± 6.4e-06 s⁻¹. The Michaelis-Menten constant (KM) with glucosamine-6-phosphate [5] worked out at 759 ± 210 µM. Besides, the “self-cleavage kobs at 40 uM GlcN6P” value in the series with glucosamine-6-phosphate [2] was under 1e-05 s⁻¹. Also, the “self-cleavage kobs at 640 uM GlcN6P” value with glucosamine-6-phosphate [4] came out at 4.19e-05 ± 7.6e-06 s⁻¹. The “self-cleavage kobs at 2500 uM GlcN6P” value in the series with glucosamine-6-phosphate [7] came out at 0.000108 ± 3.8e-05 s⁻¹. Also, in the series with glucosamine-6-phosphate [6], the “self-cleavage kobs at 10000 uM GlcN6P” value came to 8.43e-05 ± 7.8e-06 s⁻¹.

With U56G C70G, the catalytic constant (kcat) with glucosamine-6-phosphate [1] was 9.25e-05 ± 3.2e-06 s⁻¹. In addition, the Michaelis constant (KM) with glucosamine-6-phosphate [5] is 61.4 ± 13 µM. Moreover, in the series with glucosamine-6-phosphate [2], the “self-cleavage kobs at 40 uM GlcN6P” value came out at 4.14e-05 ± 9.7e-06 s⁻¹. Moreover, the “self-cleavage kobs at 160 uM GlcN6P” value with glucosamine-6-phosphate [3] was 6.12e-05 ± 1e-05 s⁻¹. The “self-cleavage kobs at 640 uM GlcN6P” value with glucosamine-6-phosphate [4] came to 8.21e-05 ± 8.7e-06 s⁻¹. Further, in the series with glucosamine-6-phosphate [7], the “self-cleavage kobs at 2500 uM GlcN6P” value is 9.14e-05 ± 1.1e-05 s⁻¹. In addition, in the series with glucosamine-6-phosphate [6], the “self-cleavage kobs at 10000 uM GlcN6P” value was found to be 9.54e-05 ± 9.8e-06 s⁻¹.

In the case of G38C C71U, the turnover number (kcat) with glucosamine-6-phosphate [1] is under 1e-05 s⁻¹. The “self-cleavage kobs at 40 uM GlcN6P” value with glucosamine-6-phosphate [2] is under 1e-05 s⁻¹. In addition, in the series with glucosamine-6-phosphate [4], the “self-cleavage kobs at 640 uM GlcN6P” value was under 1e-05 s⁻¹.

For the variant A12C G66C C70A, the turnover number (kcat) with glucosamine-6-phosphate [1] was 8.64e-05 ± 2.7e-05 s⁻¹. For the same variant, the “self-cleavage kobs at 160 uM GlcN6P” value in the series with glucosamine-6-phosphate [3] was found to be 0.000157 ± 5.7e-05 s⁻¹. Besides, the “self-cleavage kobs at 640 uM GlcN6P” value in the series with glucosamine-6-phosphate [4] is 3.9e-05 ± 1.8e-05 s⁻¹. Besides, the “self-cleavage kobs at 2500 uM GlcN6P” value in the series with glucosamine-6-phosphate [7] was determined as 0.00011 ± 3.2e-05 s⁻¹. In the series with glucosamine-6-phosphate [6], the “self-cleavage kobs at 10000 uM GlcN6P” value worked out at 8.13e-05 ± 1.6e-05 s⁻¹.

Regarding A15U C71A, the kcat with glucosamine-6-phosphate [1] was determined as 0.000688 ± 4.8e-05 s⁻¹. The Michaelis-Menten constant (KM) with glucosamine-6-phosphate [5] turned out to be 1050 ± 120 µM. In the series with glucosamine-6-phosphate [2], the “self-cleavage kobs at 40 uM GlcN6P” value came to 3.22e-05 ± 8.9e-06 s⁻¹. The “self-cleavage kobs at 160 uM GlcN6P” value with glucosamine-6-phosphate [3] was found to be 8.62e-05 ± 8.8e-06 s⁻¹. The “self-cleavage kobs at 640 uM GlcN6P” value with glucosamine-6-phosphate [4] is 0.000278 ± 3.4e-05 s⁻¹. The “self-cleavage kobs at 2500 uM GlcN6P” value with glucosamine-6-phosphate [7] was 0.000497 ± 6.4e-05 s⁻¹. In addition, in the series with glucosamine-6-phosphate [6], the “self-cleavage kobs at 10000 uM GlcN6P” value is 0.000605 ± 7e-05 s⁻¹.

Consider U49C C71A, for which the kcat in the series with glucosamine-6-phosphate [1] was under 1e-05 s⁻¹. In addition, the “self-cleavage kobs at 40 uM GlcN6P” value in the series with glucosamine-6-phosphate [2] is under 1e-05 s⁻¹. Further, in the series with glucosamine-6-phosphate [4], the “self-cleavage kobs at 640 uM GlcN6P” value was under 1e-05 s⁻¹.

Regarding C16U C61G C67A, the turnover number (kcat) with glucosamine-6-phosphate [1] was found to be 2.72e-05 ± 6.4e-06 s⁻¹.

Consider U46G U65A C71U, for which, in the series with glucosamine-6-phosphate [1], the turnover number (kcat) is 0.00287 ± 0.00028 s⁻¹. In addition, the KM in the series with glucosamine-6-phosphate [5] worked out at 2140 ± 340 µM. For the same variant, in the series with glucosamine-6-phosphate [2], the “self-cleavage kobs at 40 uM GlcN6P” value worked out at 4.68e-05 ± 1.3e-05 s⁻¹. Further, the “self-cleavage kobs at 160 uM GlcN6P” value in the series with glucosamine-6-phosphate [3] is 0.000191 ± 6.8e-05 s⁻¹. Also, the “self-cleavage kobs at 640 uM GlcN6P” value in the series with glucosamine-6-phosphate [4] is 0.000735 ± 0.00016 s⁻¹. Also, the “self-cleavage kobs at 2500 uM GlcN6P” value with glucosamine-6-phosphate [7] stood at 0.00173 ± 0.00035 s⁻¹. Further, the “self-cleavage kobs at 10000 uM GlcN6P” value with glucosamine-6-phosphate [6] turned out to be 0.00224 ± 0.00038 s⁻¹.

Turning to C67A C70A, in the series with glucosamine-6-phosphate [1], the kcat was found to be 5e-05 ± 6.5e-06 s⁻¹. Moreover, the “self-cleavage kobs at 640 uM GlcN6P” value in the series with glucosamine-6-phosphate [4] came to 4.23e-05 ± 1.8e-05 s⁻¹. Further, in the series with glucosamine-6-phosphate [7], the “self-cleavage kobs at 2500 uM GlcN6P” value was 6.33e-05 ± 1e-05 s⁻¹. For the same variant, the “self-cleavage kobs at 10000 uM GlcN6P” value with glucosamine-6-phosphate [6] came out at 4.28e-05 ± 7.3e-06 s⁻¹.

Regarding C67A C70U, in the series with glucosamine-6-phosphate [1], the turnover number (kcat) is 0.00153 ± 0.00062 s⁻¹. The “self-cleavage kobs at 40 uM GlcN6P” value with glucosamine-6-phosphate [2] came to 9.1e-05 ± 9.4e-06 s⁻¹. Also, the “self-cleavage kobs at 160 uM GlcN6P” value with glucosamine-6-phosphate [3] worked out at 0.000211 ± 3.6e-05 s⁻¹. In addition, the “self-cleavage kobs at 640 uM GlcN6P” value with glucosamine-6-phosphate [4] was determined as 0.000461 ± 6.6e-05 s⁻¹. Moreover, the “self-cleavage kobs at 2500 uM GlcN6P” value with glucosamine-6-phosphate [7] came to 0.00129 ± 0.00019 s⁻¹. Also, in the series with glucosamine-6-phosphate [6], the “self-cleavage kobs at 10000 uM GlcN6P” value is 0.00206 ± 0.00033 s⁻¹.

As for A12C C58U, the kcat with glucosamine-6-phosphate [1] was determined as 0.000159 ± 1.6e-05 s⁻¹. In the series with glucosamine-6-phosphate [5], the KM stood at 6360 ± 1200 µM. Further, the “self-cleavage kobs at 2500 uM GlcN6P” value with glucosamine-6-phosphate [7] turned out to be 4.66e-05 ± 9.5e-06 s⁻¹. Besides, the “self-cleavage kobs at 10000 uM GlcN6P” value in the series with glucosamine-6-phosphate [6] stood at 9.68e-05 ± 1.2e-05 s⁻¹.
